Data from IntAct's records for PubMed 21390248.

What was measured:
1433g_mouse Ywhag [1] = target: 1433g_mouse Ywhag (UniProt P61982)
1433g_mouse Ywhag [2] = target: 1433g_mouse Ywhag (UniProt P61982); remark: listed apart in the source

Sequence of UniProt P61982 (P61982 whole entry): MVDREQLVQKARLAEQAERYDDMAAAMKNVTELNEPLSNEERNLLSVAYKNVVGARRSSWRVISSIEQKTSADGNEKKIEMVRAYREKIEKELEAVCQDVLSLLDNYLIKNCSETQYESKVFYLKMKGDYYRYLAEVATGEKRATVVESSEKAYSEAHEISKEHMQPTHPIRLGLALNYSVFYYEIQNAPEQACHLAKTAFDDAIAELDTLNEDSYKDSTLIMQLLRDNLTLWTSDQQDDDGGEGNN

Row | Substance | effect of a mutation on the interaction (1433g_mouse Ywhag [1]) | effect of a mutation on the interaction (1433g_mouse Ywhag [2])
1 | Leucine-rich repeat serine/threonine-protein kinase 2 (Mus musculus), Q5S006 G2019S | decreasing interaction | 
2 | Leucine-rich repeat serine/threonine-protein kinase 2 (Mus musculus), Q5S006 R1441G | decreasing interaction | 
3 | Leucine-rich repeat serine/threonine-protein kinase 2 (Mus musculus), Q5S006 S935A | decreasing interaction | 
4 | Leucine-rich repeat serine/threonine-protein kinase 2 (Mus musculus), Q5S006 Y1699C |  | decreasing interaction
